Results taken from the supplement of paper PMC10126150.
± gives the standard deviation of the averaged measurements.

What follows are sequences tested on ATP (assay: switch fluorescence ratio, 500 uM ATP over buffer (Cy3 cluster intensity, sum of 5 cycles each) (fold (ratio)); higher = stronger signal-on switching upon ATP binding; sequences stand for … in TCGTCGGCAGCGTCAGATGTGTATAAGAGACAGTTTTTTTTTTTTTTTTTTTTTTTTT…TC). Details: aptamer strand: ATP DNA aptamer (quencher-CACCTGGGGGAGTATTGCGGAGGAAGG + anchor), 100 nM annealed; ATP concentration: 500 uM.
Summary of the method: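 Cy3-labelled switching-strand clusters on a modified Illumina MiSeq flow-cell were annealed to 100 nM quencher-labelled ATP aptamer, imaged in selection buffer, then imaged after 15 min with 500 uM ATP at 22 °C. Five buffer/ATP cycles ran, with NaOH stripping and re-annealing between them. The fluorescence ratio is summed target-cycle over summed buffer-cycle Cy3 intensity per cluster, averaged per switch-domain sequence. Clusters outside 100-1000 RFU were excluded.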
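Also: ATP exposure 15 min at 22 °C before imaging.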

| Sequence | switch fluorescence ratio |
| --- | --- |
| GGTGGCAGGA | 1.01 ± 0.032 |
| GGTGGCGCTA | 1.01 ± 0.02 |
| GGTGGGCGGG | 1.01 ± 0.016 |
| GGTGGGGACG | 0.974 ± 0.037 |
| GGTGGGGCAC | 0.999 ± 0.041 |
| GGTGGGGCCC | 0.983 ± 0.032 |
| GGTGGGGGGA | 1.01 ± 0.063 |
| GGTGGGGGT | 1.35 ± 0.48 |
| GGTGGGTATA | 1 ± 0.037 |
| GGTGGGTGGG | 0.999 ± 0.042 |
| GGTGGTACGT | 0.999 ± 0.022 |
| GGTGGTACTG | 1.01 ± 0.037 |
| GGTGGTAGGC | 1 ± 0.046 |
| GGTGGTCGGG | 0.982 ± 0.0053 |
| GGTGGTGACT | 1.01 ± 0.036 |
| GGTGGTGGGC | 0.954 ± 0.01 |
| GGTGGTGTCG | 1 ± 0.017 |
| GGTGGTGTTT | 1 ± 0.026 |
| GGTGGTTGGA | 1.02 ± 0.04 |
| GGTGTAAGAA | 1.002 ± 0.0085 |
| GGTGTACGGA | 0.972 ± 0.043 |
| GGTGTATTAG | 1 ± 0.029 |
| GGTGTATTTG | 0.981 ± 0.013 |
| GGTGTCTTCA | 1.06 ± 0.076 |
| GGTGTGAATT | 1.02 ± 0.034 |

| Sequence | switch fluorescence ratio |
| --- | --- |
| GGTGTGAGGT | 0.9973 ± 0.0093 |
| GGTGTGAGTA | 1.01 ± 0.016 |
| GGTGTGATTG | 0.977 ± 0.04 |
| GGTGTGCACC | 1 ± 0.025 |
| GGTGTGGGCG | 0.983 ± 0.079 |
| GGTGTGTCTC | 1.03 ± 0.065 |
| GGTGTGTTGC | 0.998 ± 0.06 |
| GGTGTTAAAC | 1.01 ± 0.035 |
| GGTGTTATGT | 1.01 ± 0.016 |
| GGTGTTCTGA | 1.01 ± 0.023 |
| GGTGTTGGCT | 1.02 ± 0.059 |
| GGTGTTGGTG | 1.01 ± 0.025 |
| GGTGTTTGCT | 0.965 ± 0.022 |
| GGTTAAGTGT | 1.01 ± 0.021 |
| GGTTACCTTC | 1.356 ± 0.0068 |
| GGTTACTGGT | 1.01 ± 0.03 |
| GGTTAGATAC | 1.19 ± 0.025 |
| GGTTAGATGT | 0.9766 ± 0.0075 |
| GGTTAGGGGA | 0.994 ± 0.036 |
| GGTTATAGGA | 0.99 ± 0.036 |
| GGTTATAGTC | 0.966 ± 0.02 |
| GGTTATATAG | 1.01 ± 0.016 |
| GGTTATCGTA | 1.02 ± 0.011 |
| GGTTATGAGG | 0.994 ± 0.031 |
| GGTTATGCGG | 1.01 ± 0.046 |

| Sequence | switch fluorescence ratio |
| --- | --- |
| GGTTATTGCT | 1.02 ± 0.0033 |
| GGTTATTTGT | 0.992 ± 0.041 |
| GGTTATTTTG | 1.01 ± 0.015 |
| GGTTCAATTG | 1.03 ± 0.089 |
| GGTTCAGATG | 1.0081 ± 0.00081 |
| GGTTCAGCTT | 0.981 ± 0.013 |
| GGTTCAGGCT | 0.977 ± 0.025 |
| GGTTCCGTGG | 0.994 ± 0.023 |
| GGTTGAGGGG | 0.985 ± 0.034 |
| GGTTGAGGTG | 1.01 ± 0.039 |
| GGTTGATAAT | 1.002 ± 0.0043 |
| GGTTGCGGCA | 1.01 ± 0.041 |
| GGTTGCTAGG | 0.9916 ± 0.0037 |
| GGTTGGAATT | 1.01 ± 0.025 |
| GGTTGGATTT | 0.978 ± 0.017 |
| GGTTGGGATC | 0.9513 ± 0.0082 |
| GGTTGGGGGT | 1.01 ± 0.045 |
| GGTTGGGTCC | 0.9701 ± 0.0018 |
| GGTTGGTGGT | 1.028 ± 0.0064 |
| GGTTGGTGTG | 0.967 ± 0.023 |
| GGTTGGTTTC | 1.01 ± 0.055 |
| GGTTGGTTTG | 0.99 ± 0.06 |
| GGTTGGTTTT | 0.992 ± 0.024 |
| GGTTGTCCAG | 0.9966 ± 0.0014 |
| GGTTGTCTTA | 0.9726 ± 0.0018 |

| Sequence | switch fluorescence ratio |
| --- | --- |
| GGTTGTTTTG | 1.017 ± 0.0097 |
| GGTTTAAACT | 0.987 ± 0.016 |
| GGTTTAAAGG | 0.996 ± 0.015 |
| GGTTTAAATT | 1 ± 0.018 |
| GGTTTAAGAT | 1.0263 ± 0.00079 |
| GGTTTAATTT | 0.993 ± 0.026 |
| GGTTTACGGA | 0.964 ± 0.01 |
| GGTTTAGATG | 1.02 ± 0.015 |
| GGTTTAGGGA | 0.996 ± 0.039 |
| GGTTTATATG | 1.035 ± 0.0011 |
| GGTTTATTGT | 0.993 ± 0.056 |
| GGTTTCAATA | 1.0088 ± 0.00023 |
| GGTTTCATAT | 0.996 ± 0.026 |
| GGTTTCCCT | 0.973 ± 0.019 |
| GGTTTCCTGG | 0.971 ± 0.031 |
| GGTTTCGCGA | 1.07 ± 0.053 |
| GGTTTCGGCA | 1.01 ± 0.0045 |
| GGTTTCTCTT | 1.003 ± 0.0099 |
| GGTTTGAGGT | 0.993 ± 0.027 |
| GGTTTGCGGG | 1.01 ± 0.0095 |
| GGTTTGGCTG | 0.993 ± 0.038 |
| GGTTTGGGG | 1.03 ± 0.016 |
| GGTTTGGGGT | 0.99 ± 0.032 |
| GGTTTGGGTT | 0.998 ± 0.037 |
| GGTTTGGTG | 1.006 ± 0.0058 |
